Series [1] deals with HCT15 (high Pgp expression). As to the kind of experiment: Cell viability assay (crystal violet staining), payloads, HCT15. In kind it is cell-based. As to conditions: HCT15, 48 hours incubation, read-out: IC 50 HCT15. As for the experimental part:
(§1) The cytotoxic activity of A1B1 cytolysin and MMAE payloads was analyzed via cell-viability assay using the colorectal cancer cell lines HCT15 (high Pgp expression) and HCT116 (low Pgp expression). The day before the assay, cells were seeded and cultivated overnight at 37 °C. Titration of the payloads diluted in medium was added to the cells and incubated for 48 hours at 37 °C. Finally, cell viability was analyzed by crystal violet staining.

For series [2], the system named is HCT116 (low Pgp expression). As to the kind of experiment: Cell viability assay (crystal violet staining), payloads, HCT116. In kind it is cell-based. The conditions noted are these: HCT116, 48 hours incubation. As for the experimental part: as §1
For series [3], the target named is Fibroblast activation protein (FAP) on FAP-expressing HT1080-FAP cells (UniProt Q12884). Briefly: cell-based or functional assay.
Series [4] has the same target. As to the kind of experiment: flow cytometry on HT1080-FAP cells, PE-labeled anti-human Fc secondary antibody, MFI. Background: Flow cytometry measures light scatter and fluorescence of single cells or particles in a stream.
Series [5] addresses T1, Fibroblast activation protein (FAP) on FAP-expressing HT1080-FAP cells (UniProt Q12884 1-760, limits assumed).
T1 construct: whole, on cells; also called FAPα
T1 sequence (looked up): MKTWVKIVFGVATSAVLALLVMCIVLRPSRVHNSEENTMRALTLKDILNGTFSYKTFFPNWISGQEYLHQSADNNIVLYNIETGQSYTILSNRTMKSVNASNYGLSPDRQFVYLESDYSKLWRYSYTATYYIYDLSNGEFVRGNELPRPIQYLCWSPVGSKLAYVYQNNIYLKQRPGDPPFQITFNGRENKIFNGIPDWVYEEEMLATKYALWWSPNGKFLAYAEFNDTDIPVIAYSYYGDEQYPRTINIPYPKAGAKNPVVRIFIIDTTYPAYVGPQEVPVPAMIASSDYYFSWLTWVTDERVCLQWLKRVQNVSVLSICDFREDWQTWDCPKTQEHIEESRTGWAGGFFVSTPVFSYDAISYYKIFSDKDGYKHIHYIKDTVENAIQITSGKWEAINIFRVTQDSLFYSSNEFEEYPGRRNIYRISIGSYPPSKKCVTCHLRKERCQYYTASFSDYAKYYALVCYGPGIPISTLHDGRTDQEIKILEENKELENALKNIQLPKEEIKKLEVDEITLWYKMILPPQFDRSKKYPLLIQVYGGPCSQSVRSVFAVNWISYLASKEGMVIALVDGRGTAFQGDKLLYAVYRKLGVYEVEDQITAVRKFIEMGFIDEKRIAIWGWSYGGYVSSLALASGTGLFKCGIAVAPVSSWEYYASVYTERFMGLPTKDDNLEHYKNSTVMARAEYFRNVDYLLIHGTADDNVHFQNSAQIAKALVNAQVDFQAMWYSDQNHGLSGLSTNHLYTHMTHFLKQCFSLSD
The series is described as above.

Series [6] addresses T1, Fibroblast activation protein (FAP) on …. As to the kind of experiment: cell-based or functional assay.
Series [7] relates to HT1080-FAP transfected cells. Briefly: In vivo efficacy and tolerability in the HT1080-FAP tumor model with huPBMCs. Set-up: species or system female NOD scid gamma (NSG) mice. As to the method: To evaluate the in vivo efficacy of OMTX1 05 and OMTX705, both ADCs were tested in female NOD scid gamma (NSG) mice co-inoculated with HT1080-FAP transfected cells and huPBMCs.
After 7 days, mice were randomized according to tumor size in the different treatment groups. Treatments with OMTX105 and OMTX705 as single agents were initiated, both with a weekly intravenous dose of 20 mg/kg over 3 weeks.
Tumor volume and animal weight were measured 3 times a week to monitor the evolution of tumor growth and weight change upon treatment.

Series [8] has as its system Panc007 pancreatic ductal adenocarcinoma patient derived xenograft. As to the kind of experiment: In vivo efficacy and tolerability in the Panc007 patient-derived xenograft model. On the set-up: species or system female Athymic nude-Foxn1 (nude/nude) mice. The conditions noted are these: for TGI value: day 28. As to the method:
The antitumor activity of OMTX105 vs OMTX705 was evaluated in the Panc007 pancreatic ductal adenocarcinoma patient derived xenograft mode in female Athymic nude-Foxn1 (nude/nude) mice.
Both OMTX105 and OMTX705 were administered intravenously at 5 and 20 mg/kg once a week for 4 weeks.
(In general: In xenograft studies the graft and the host belong to different species.)

The next series relates to HT1080-FAP cells. As to the kind of experiment: ADC cytotoxic activity, cell viability assay, HT1080-FAP. In kind it is cell-based. As to the method:
(§2) OMTX105 cytotoxic activity was analyzed via cell viability assay using HT1080-FAP and HT1080-WT cells. […] Here, a concentration of half-maximal killing of 64 pM for OMTX105 was determined compared to 750 pM for OMTX705. […] Specificity ratio between both cell lines was 1,205 for OMTX105 while for OMTX705 the value was 82 (Figure 3). Table 4: Comparative in vitro binding and cytotoxic activity values of OMTX105 and OMTX705 ADCs

The subject of a further series is HT1080-WT cells. As to the kind of experiment: ADC cytotoxic activity, cell viability assay, HT1080-WT. In kind it is cell-based. The conditions noted are these: read-out: Concentration of half maximal killing HT1080 WT. As for the experimental part: as §2
Where [9] appears, read: weekly intravenous dose of 20 mg/kg over 3 weeks.
[10] abbreviates: 5 and 20 mg/kg intravenously once a week for 4 weeks.

Read-outs that look alike come from different tables or passages of the source. Non-standard residues stand in square brackets, D forms with d. Residues, ends and D or L forms follow the SMILES beside them. *: point of attachment. Dolaproine = CO[C@@H]([C@@H]1CCCN1)[C@@H](C)C(=O)O; Dil = CC[C@H](C)[C@H](NC)[C@@H](CC(=O)O)OC; X1 = C[C@@H](N*)[C@@H](O)c1ccccc1; NMeV = CN[C@H](C(=O)O)C(C)C

As for `CC[C@H](C)[C@@H]([C@@H](CC(=O)N1CCC[C@H]1[C@H](OC)[C@@H](C)C(=O)N[C@H](C)[C@@H](O)c1ccccc1)OC)N(C)C(=O)[C@@H](NC(=O)[C@@H](NC)C(C)C)C(C)C` [MMAE, Monomethyl auristatin E] (H-[NMeV]V[Dil][Dolaproine]-X1), the IC50 in series [1] was 39.5 ± 10.1 nM; in series [1] (Homo sapiens, HCT-15, 48 h), 40 nM; in [2], 2.5 ± 0.4 nM; in series [2] (Homo sapiens, HCT-116, 48 h), 3 nM.
Take “OMTX705 antibody-drug conjugate (anti-FAP monoclonal antibody conjugated to a cytolysin payload)”: in series [3], the Concentration of half maximal killing, HT1080FAP (cell viability assay) amounted to 750 pM; the Specificity ratio between HT1080WT and HT1080FAP (cell viability assay) is 82. The same molecule displayed an EC50 in series [4] of 0.204 nM.

B1: OMTX105 antibody-drug conjugate (anti-FAP IgG antibody conjugated with the drug-linker vcMMAE) (antibody, V domains shown)
VH: QVQLVQSGAEVKKPGASVKVSCKASGYTFTENIIHWVRQAPGQGLEWMGWFHPGSGSIKYNEKFKDRVTMTADTSTSTVYMELSSLRSEDTAVYYCARHGGTGRGAMDYWGQGTLVTVSS
VL: DIQMTQSPSSLSASVGDRVTITCRASKSVSTSAYSYMHWYQQKPGKAPKLLIYLASNLESGVPSRFSGSGSGTDFTLTISSLQPEDFATYYCQHSRELPYTFGQGTKLEIKR
modifications: drug-linker vcMMAE on cysteine residues of the antibody (non-site specific, thiol-based); DAR 3.92; the cysteines are not stated
notes: also called OMTX105 ADC; anti-FAP MMAE ADC
Turning to B1, the EC50 in series [5] turned out to be 0.255 nM. In series [6], the “Specificity ratio between HT1080WT and HT1080FAP (cell viability assay)” value was 1200.

B2: OMTX105: anti-FAP IgG antibody conjugated with the drug-linker vcMMAE, through thiol-based reaction on the cysteine residues of the antibody (conjugate)
heavy: QVQLVQSGAEVKKPGASVKVSCKASGYTFTENIIHWVRQAPGQGLEWMGWFHPGSGSIKYNEKFKDRVTMTADTSTSTVYMELSSLRSEDTAVYYCARHGGTGRGAMDYWGQGTLVTVSSASTKGPSVFPLAPSSKSTSGGTAALGCLVKDYFPEPVTVSWNSGALTSGVHTFPAVLQSSGLYSLSSVVTVPSSSLGTQTYICNVNHKPSNTKVDKKVEPKSCDKTHTCPPCPAPPVAGPSVFLFPPKPKDTLMISRTPEVTCVVVDVSHEDPEVKFNWYVDGVEVHNAKTKPREEQYNSTYRVVSVLTVLHQDWLNGKEYKCKVSNKGLPSSIEKTISKAKGQPREPQVYTLPPSRDELTKNQVSLTCLVKGFYPSDIAVEWESNGQPENNYKTTPPVLDSDGSFFLYSKLTVDKSRWQQGNVFSCSVMHEALHNHYTQKSLSLSPGK
light: DIQMTQSPSSLSASVGDRVTITCRASKSVSTSAYSYMHWYQQKPGKAPKLLIYLASNLESGVPSRFSGSGSGTDFTLTISSLQPEDFATYYCQHSRELPYTFGQGTKLEIKRTVAAPSVFIFPPSDEQLKSGTASVVCLLNNFYPREAKVQWKVDNALQSGNSQESVTEQDSKDSTYSLSSTLTLSKADYEKHKVYACEVTHQGLSSPVTKSFNRGEC
Regarding B2, the tolerability result in series [7] (20 mg/kg, 21-day test period) is listed as “well tolerated”. Further, in series [7] (setting [9]), the complete response result is reported as “complete response in this model at day 7” and the “percentage tumor growth inhibition (TGI)” value stood at 104.98%. Besides, in series [7] (weekly intravenous dose of 20 mg/kg, 21-day test period), the “weight loss, toxic effect” value was “No weight loss, nor toxic effect”. In addition, the TGI value in series [8] (5 mg/kg intravenously once a week for 4 weeks) stood at 85%. For the same molecule, in series [8] (20 mg/kg intravenously once a week for 4 weeks), the TGI value is listed as 136%. Besides, in series [8] (setting [10]), the “adverse effects or animal death” value is “no adverse effects or animal death”; the “tolerability (body weight data and clinical observations)” value is on record as “well tolerated”. Besides, the weight loss result in [8] (both 5 mg/kg and 20 mg/kg, after 56 days) is “no weight loss observed”. Moreover, the EC50 in the series with HT1080-FAP cells (HT1080-FAP cells, read-out: Concentration of half maximal killing HT1080FAP) came to 0.064 ± 0.033 nM. Moreover, the “Specificity ratio between HT1080WT and HT1080FAP” value with HT1080-FAP cells (ratio of half maximal killing concentrations, HT1080-WT to HT1080-FAP) was 1,205. Further, the EC50 with HT1080-WT cells worked out at 77.2 nM.

The values above are taken from patent EP4616869A1, “FAP TARGETED ANTIBODY-DRUG CONJUGATES” (Oncomatryx Biopharma, S.L., priority 2024, dated 2025).
